Common to all, as to assay: cell-based or functional assay
Test [1] deals with human GLP-1 receptor (human) (UniProt P43220).
A further test addresses human GLP-1 receptor (human, UniProt P43220 24-463).
Test [2] concerns the target T1, human GIP receptor (human, UniProt P48546 22-466).
T1 sequence (looked up): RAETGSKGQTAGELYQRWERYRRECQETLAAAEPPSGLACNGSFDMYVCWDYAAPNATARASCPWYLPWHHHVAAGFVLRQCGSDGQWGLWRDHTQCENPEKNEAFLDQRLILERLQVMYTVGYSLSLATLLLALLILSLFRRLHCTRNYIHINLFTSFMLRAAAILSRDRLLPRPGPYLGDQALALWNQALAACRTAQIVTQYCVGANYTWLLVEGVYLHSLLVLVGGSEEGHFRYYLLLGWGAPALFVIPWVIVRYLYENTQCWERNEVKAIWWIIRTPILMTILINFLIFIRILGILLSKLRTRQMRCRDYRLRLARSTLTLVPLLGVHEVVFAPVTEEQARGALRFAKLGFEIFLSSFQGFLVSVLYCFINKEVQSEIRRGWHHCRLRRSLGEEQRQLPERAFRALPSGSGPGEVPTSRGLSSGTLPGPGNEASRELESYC

For test [3], the target named is T1, human GIP receptor. This is another data set of the same source.
Test [4] has as its target T1, human GIP receptor. The source holds these as a separate data set.

Where two headings read alike, the source gives them in different places. Starred links: 1 amine or outer side, 2 acyl side, 3 side chain; linkers in the order of their positions; H or OH if unused. Non-standard residues stand in square brackets, D forms with d. Groups on a side chain read outwards from the residue. *: point of attachment. C20 diacid = O=C(O)CCCCCCCCCCCCCCCCCCC(=O)*; γGlu = O=C(O)[C@H](CCC(=O)[*:2])N[*:1]; Aib = CC(C)(N)C(=O)O

Chain of human GLP-1 receptor (human) (P43220 24-463): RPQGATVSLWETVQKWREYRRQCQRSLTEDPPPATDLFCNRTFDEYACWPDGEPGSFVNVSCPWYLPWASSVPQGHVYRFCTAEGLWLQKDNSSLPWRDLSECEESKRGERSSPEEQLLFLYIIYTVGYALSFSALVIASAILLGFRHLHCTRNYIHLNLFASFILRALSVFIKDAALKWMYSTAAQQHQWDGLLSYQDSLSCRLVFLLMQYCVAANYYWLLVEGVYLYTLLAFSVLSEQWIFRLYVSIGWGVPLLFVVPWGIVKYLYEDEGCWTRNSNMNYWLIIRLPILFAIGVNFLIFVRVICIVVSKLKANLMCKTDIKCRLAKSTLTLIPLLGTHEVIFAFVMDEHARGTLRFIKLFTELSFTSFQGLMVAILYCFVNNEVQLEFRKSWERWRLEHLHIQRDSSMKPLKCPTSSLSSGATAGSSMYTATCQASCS

In test [1], “Exendin-4 (from UniProt P26349 48-86) (peptide)” gave an EC50 hGLP1 R (cAMP, HEK293 cells expressing the GLP-1R) of 0.004 nM.

In the test with human GLP-1 receptor, “human GIP (from UniProt P09681 52-93) (ligand)” registered an EC50 hGLP1 R (cAMP, HEK293 cells expressing the GLP-1R) of over 100 nM. Further, the EC50, hGIP-R level of cAMP (HEK293 cells expressing human GIP R) with human GIP receptor [2] was determined as 0.003 nM.

B1: Compound 13 (peptide)
peptide: H-Y[Aib]EGTFISDYSIELEKIAQRAFVEWLLAQGPSSGAPPPSK([Peg3-Peg3-γGlu-C20 diacid])-NH2
For B1, the “EC50 hGIP R (cAMP, HEK293 cells expressing the GIP R)” value (shortened to “EC50 hGIP R”) with human GIP receptor [3] was 0.008 nM. Further, the “EC50 hGLP1 R (cAMP, HEK293 cells expressing the GLP-1R)” value (shortened to “EC50 hGLP1 R”) with human GLP-1 receptor was over 10 nM. Besides, in the test with human GIP receptor [4], the “EC50, hGIP-R level of cAMP (HEK293 cells expressing human GIP R)” value (“EC50, hGIP-R level of cAMP” below) is 0.014 nM.

B2: Compound 12 (peptide)
peptide: H-Y[Aib]EGTFISDYSIELEKK([Peg3-Peg3-γGlu-C20 diacid])AQRAFVEWLLAQGPSSGAPPPS-NH2
As for B2, the “EC50 hGIP R” value in the test with human GIP receptor [3] was 0.009 nM. Besides, the “EC50 hGLP1 R” value with human GLP-1 receptor is over 3 nM. In addition, the “EC50, hGIP-R level of cAMP” value in the test with human GIP receptor [4] was 0.009 nM.

B3: Compound 17 (peptide)
peptide: H-Y[Aib]EGTFISDYSIELDKK([Peg3-Peg3-γGlu-C20 diacid])AQRAFVEWLLAQGPSSGAPPPS-NH2
Take B3: in the test with human GIP receptor [3], the “EC50 hGIP R” value was 0.016 nM. Besides, in the test with human GLP-1 receptor, the “EC50 hGLP1 R” value is over 3 nM. For the same molecule, the “EC50, hGIP-R level of cAMP” value in the test with human GIP receptor [4] came out at 0.007 nM.

B4: Compound 18 (peptide)
peptide: H-Y[Aib]EGTFISDYSIELDKK([Peg3-Peg3-γGlu-C20 diacid])AQRAFIEWLLAQGPSSGAPPPS-NH2
Turning to B4, the “EC50 hGIP R” value with human GIP receptor [3] was determined as 0.007 nM. Moreover, the “EC50 hGLP1 R” value with human GLP-1 receptor was over 3 nM. In addition, the “EC50, hGIP-R level of cAMP” value in the test with human GIP receptor [4] was 0.006 nM.

B5: Compound 14 (peptide)
peptide: H-Y[Aib]EGTFISDYSIELEKIAQRAFVEWLLAQK([Peg3-Peg3-γGlu-C20 diacid])-NH2
As to B5, the “EC50 hGIP R” value with human GIP receptor [3] amounted to 0.014 nM. Besides, the “EC50 hGLP1 R” value with human GLP-1 receptor was over 10 nM. Moreover, the “EC50, hGIP-R level of cAMP” value with human GIP receptor [4] turned out to be 0.024 nM.

B6: Compound 16 (peptide)
peptide: H-Y[Aib]EGTFISDYSIELDKIAAQDFVNWLLAGPSSGAPPPSK([Peg3-Peg3-γGlu-C20 diacid])-NH2
For the molecule B6, the “EC50 hGIP R” value with human GIP receptor [3] was 0.012 nM. For the same molecule, the “EC50 hGLP1 R” value with human GLP-1 receptor was over 10 nM. In addition, in the test with human GIP receptor [4], the “EC50, hGIP-R level of cAMP” value was found to be 0.016 nM.

B7: Compound 8 (peptide)
peptide: H-Y[Aib]EGTFISDYSIELDKK([Peg3-Peg3-γGlu-C20 diacid])HQQDFVNYLLAQGPSSGAPPPS-NH2
As to B7, the “EC50 hGIP R” value with human GIP receptor [3] came to 0.019 nM. Besides, in the test with human GLP-1 receptor, the “EC50 hGLP1 R” value was over 10 nM. Besides, the “EC50, hGIP-R level of cAMP” value in the test with human GIP receptor [4] turned out to be 0.009 nM.

B8: Compound 15 (peptide)
peptide: H-Y[Aib]EGTFISDYSIELDKK([Peg3-Peg3-γGlu-C20 diacid])AAQDFVNWLLAGPSSGAPPPS-NH2
On to B8, for which, in the test with human GIP receptor [3], the “EC50 hGIP R” value came to 0.024 nM. The “EC50 hGLP1 R” value in the test with human GLP-1 receptor is over 100 nM. Besides, in the test with human GIP receptor [4], the “EC50, hGIP-R level of cAMP” value turned out to be 0.012 nM.

For the origin of these results see patent US10253078 (ZEALAND PHARMA A S, dated 2019).
